Literature values in publication PMC7826847.
Read-outs that look alike come from different tables or passages of the source.

How the values were obtained:
Nectin-3 [1] = target: Nectin-3 (UniProt Q9NQS3)
Nectin-3 [2] = target: Nectin-3 (UniProt Q9NQS3); remark: listed apart in the source

Chain of Nectin-3 (Q9NQS3 58-404): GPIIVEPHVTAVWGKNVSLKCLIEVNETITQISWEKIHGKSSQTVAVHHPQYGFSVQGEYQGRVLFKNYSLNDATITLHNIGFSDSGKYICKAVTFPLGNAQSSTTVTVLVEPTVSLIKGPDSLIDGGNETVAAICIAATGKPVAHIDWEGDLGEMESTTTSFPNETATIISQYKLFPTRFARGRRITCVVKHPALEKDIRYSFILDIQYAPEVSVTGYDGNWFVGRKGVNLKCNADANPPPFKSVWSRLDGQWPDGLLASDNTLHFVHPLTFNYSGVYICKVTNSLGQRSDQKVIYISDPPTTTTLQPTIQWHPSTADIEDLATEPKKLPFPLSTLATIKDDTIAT
Chain of Nectin-1 (Q15223 31-355): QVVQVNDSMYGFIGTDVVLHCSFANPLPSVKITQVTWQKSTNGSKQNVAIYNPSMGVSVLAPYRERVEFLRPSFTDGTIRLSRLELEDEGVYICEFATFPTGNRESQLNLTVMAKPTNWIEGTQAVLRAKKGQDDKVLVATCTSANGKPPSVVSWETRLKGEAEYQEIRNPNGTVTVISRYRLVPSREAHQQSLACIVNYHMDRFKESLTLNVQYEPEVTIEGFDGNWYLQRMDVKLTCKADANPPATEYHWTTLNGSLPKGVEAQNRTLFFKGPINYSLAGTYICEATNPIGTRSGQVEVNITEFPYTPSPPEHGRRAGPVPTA
Chain of Nectin-2 (Q92692 32-360): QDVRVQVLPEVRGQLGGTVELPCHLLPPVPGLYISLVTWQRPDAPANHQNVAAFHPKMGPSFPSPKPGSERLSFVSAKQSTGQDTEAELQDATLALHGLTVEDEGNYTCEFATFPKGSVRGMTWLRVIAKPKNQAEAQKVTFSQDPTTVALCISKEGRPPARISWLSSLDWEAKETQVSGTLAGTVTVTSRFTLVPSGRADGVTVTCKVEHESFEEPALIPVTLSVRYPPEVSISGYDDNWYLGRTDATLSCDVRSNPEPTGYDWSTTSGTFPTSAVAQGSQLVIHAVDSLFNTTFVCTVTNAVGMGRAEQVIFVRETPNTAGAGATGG

Substance: Nectin-2 (from UniProt Q92692)
- Kd (Nectin-3 [1]): 0.36 µM

Substance: Nectin-1 (from UniProt Q15223)
- Kd (Nectin-3 [2]): 0.0023 µM
